Source: paper PMC3616739

Biological target: GST-LEDGF PWWP (UniProt O75475 1-100)
Test: EMSA

GST-LEDGF PWWP, sequence (O75475 1-100): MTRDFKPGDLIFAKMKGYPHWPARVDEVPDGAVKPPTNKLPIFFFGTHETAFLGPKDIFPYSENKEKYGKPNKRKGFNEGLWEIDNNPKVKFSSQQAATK

| Binder | Kd [nM] |
| --- | --- |
| SMYD1 DNA 40 bp (dsDNA) DNA 1: CAGGCTGGTCTTGAACTCCTGACCTCAGATGATCCATGTG DNA 2: CACATGGATCATCTGAGGTCAGGAGTTCAAGACCAGCCTG | ~1500 |
| non-specific DNA 40 bp (dsDNA) DNA 1: CTGCAGAAGCTTGGTGCCGGGGCCGCTCAATTGGTCGTAG DNA 2: CTACGACCAATTGAGCGGCCCCGGCACCAAGCTTCTGCAG | ~1500 |
